Measurements: publication doi:10.1101/2023.10.27.564453
pKd, pKi: −log10 of the molar value.

Biological target: MIK2 ectodomain (MIK2^LRR), residues 45-707, 6 x His-MBP tagged (Arabidopsis thaliana) (UniProt Q8VZG8)
Assay: MST

UniProt Q8VZG8, sequence (Q8VZG8 45-707): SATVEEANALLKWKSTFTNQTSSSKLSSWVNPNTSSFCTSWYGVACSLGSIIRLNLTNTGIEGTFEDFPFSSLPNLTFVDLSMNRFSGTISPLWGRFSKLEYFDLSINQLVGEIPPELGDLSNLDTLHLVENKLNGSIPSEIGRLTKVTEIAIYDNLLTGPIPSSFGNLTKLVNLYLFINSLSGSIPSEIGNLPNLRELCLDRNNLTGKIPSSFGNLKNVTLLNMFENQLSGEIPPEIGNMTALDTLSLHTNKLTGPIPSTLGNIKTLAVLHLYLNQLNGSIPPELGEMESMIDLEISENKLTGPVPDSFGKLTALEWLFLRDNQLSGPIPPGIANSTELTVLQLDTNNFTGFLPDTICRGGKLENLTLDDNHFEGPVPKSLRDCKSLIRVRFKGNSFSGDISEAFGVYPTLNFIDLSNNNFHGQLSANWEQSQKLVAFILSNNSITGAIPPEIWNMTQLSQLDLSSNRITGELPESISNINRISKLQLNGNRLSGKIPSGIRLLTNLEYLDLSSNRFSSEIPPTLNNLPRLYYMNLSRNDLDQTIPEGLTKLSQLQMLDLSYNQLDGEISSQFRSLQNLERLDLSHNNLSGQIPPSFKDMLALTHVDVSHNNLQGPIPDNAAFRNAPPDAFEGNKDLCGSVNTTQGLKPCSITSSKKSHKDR

Row | pKd | pKi | Substance
1 | 7.66 | – | 5-FAM-SCOOP12 peptide (N-terminally 5-FAM labelled) (from UniProt B3H7I1 44-78)
2 | 7.87 | – | 5-FAM-SCOOP10 peptide (SCOOP10#2, N-terminally 5-FAM labelled) (from UniProt Q9LU08 30-98)
3 | – | 7.40 | SCOOP12 peptide (unlabelled) (from UniProt B3H7I1 44-78)
